# Measured values: patent publication JP2010189402A (dated 2010)
# Values joined by “and” are separate entries in the source; they are usually repeats but may differ in a detail not shown here. Equal entries are not always repeated.
# T1: ヒトCD20抗原 (human, UniProt P11836 1-297)
# T1 construct: whole, on cells; Kd values were measured on Raji suspension cells that express CD20 naturally; also called CD20; ヒトCD20分子
# T1 sequence (looked up): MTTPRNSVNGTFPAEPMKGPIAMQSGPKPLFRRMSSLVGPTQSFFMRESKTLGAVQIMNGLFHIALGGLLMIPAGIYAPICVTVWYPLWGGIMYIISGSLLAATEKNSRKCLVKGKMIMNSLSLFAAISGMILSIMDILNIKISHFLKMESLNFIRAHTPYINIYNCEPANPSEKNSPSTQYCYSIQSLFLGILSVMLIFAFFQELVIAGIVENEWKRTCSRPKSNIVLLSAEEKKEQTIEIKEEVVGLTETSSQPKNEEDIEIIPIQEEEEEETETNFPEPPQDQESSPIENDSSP
# Biological target: T1, ヒトCD20抗原
# Assay: Scatchard analysis, Raji cells, FITC-labelled secondary antibody fluorescence
row,Binder,Kd
1,"ヒト化抗CD20モノクローナル抗体 hz1791-ff (antibody, V domains shown, also called ff; hz1791-ff34) VH: QIQLVQSGSELKKPGASVKVSCKASGYTFTNFGVNWVKQAPGKGLKWMGWINTYTGEPSYADDFKGRFAFSLDASASTAYLQISSLKAEDMATYFCTRRTNYYGTSYYYAMDYWGQGTTVTVSS VL: STVMTQSPSFLSASVGDRVTITCKASQSVSNDVAWYQQKPGQSPKVLIYFASNRYTGVPDRFSGSGYGTDFTLTISSLQAEDVAVYFCQQDYSSPLTFGAGTKLEIK",< 9.5 nM
2,"ヒト化抗CD20モノクローナル抗体 hz1791-fv (antibody, V domains shown, also called fv; hz1791-fv10) VH: QIQLVQSGPELKKPGASVKISCKASGYTFTNFGVNWVKQAPGKGLKWMGWINTYTGEPSYADDFKGRFAFSLDASVSTAYLQISSLKAEDTSTYFCTRRTNYYGTSYYYAMDYWGQGTTVTVSS VL: STVMTQSPSFLSASVGDRVTITCKASQSVSNDVAWYQQKPGQSPKVLIYFASNRYTGVPDRFSGSGYGTDFTLTISSLQAEDVAVYFCQQDYSSPLTFGAGTKLEIK",< 9.5 nM
3,"ヒト化抗CD20モノクローナル抗体 hz1791-sf (antibody, V domains shown, also called sf; hz1791-sf43) VH: QIQLVQSGSELKKPGASVKVSCKASGYTFTNFGVNWVKQAPGKGLKWMGWINTYTGEPSYADDFKGRFAFSLDASASTAYLQISSLKAEDMATYFCTRRTNYYGTSYYYAMDYWGQGTTVTVSS VL: STVMTQSPDSLAVSLGERATINCKSSQSNSNDVAWYQQKPGQSPKVLIYFASNRYSGVPDRFSGSGYGTDFTLTISSLQAEDVAVYFCQQDYSSPLTFGAGTKLEIK",13 nM and 9.5 nM

# Biological target: T1, ヒトCD20抗原
# Assay: cell-based or functional assay
row,Binder,CDC 傷害活性 (RC−K8細胞)
1,"抗CD20キメラ抗体 1k1422 (antibody, V domains shown) VH: QVQLQQPGAELVKPGASVKMSCRASGYTFTNYNMHWIKQTPGQGLEWIGAIYPGSGDTSYNRKFKGKATLTADTSSSTAYMQFSSLTSADSAVYYCARFTYYYGGTYGAMDYWGQGTSVTVSL VL: QIVLTQSPPIMSASLGEEITLTCSASSRVSYMLWYQQKSGTSPKLLIYSTSNLASGVPSRFSGSGSGTFYSLTISSVEAEDAADYYCHQWTSNPCTFGGGTKLEIK",~10 %
2,"抗CD20キメラ抗体 1k0924 (antibody, V domains shown) VH: QVQLQQPGAELVKPGASVKMSCKASGYTFTSYNIHWVKQTPGQGLEWIGAIYPGNGDTSYNQKFKGKATLTSDKSSSTAYMQLSSLTSEDSAVYYCARMSTMITGFDYWGQGTTLTVSS VL: QIVLSQSPAILSASPGEKVTMTCRASSSVSYMHWYQQRPGSSPKPWIYATSNLASGVPARFSGSGSGTSYYFTISRVEAEDAATYYCQQWNSNPPTHGGGTKLEIK",~25 %
3,"抗CD20キメラ抗体 1k1736 (antibody, V domains shown) VH: QVQLQQPGAELVKPGASVKMSCKASGYTFTTYNLHWVKQTPGQGLEWIGGIYPGNGDTSYNQKFKVKATLTADKSSNTAYMQLSSLTSEDSAVYYCARWIYYGNYEGTLDYWGQGTSVTVSS VL: QIVLSQSPAILSSSPGEKVTMTCRASSSVSYMLWYQQKPGSSPEPWIYATSNLASGVPARFSGGGSGTSYSLTISRVEAEDAATYYCQQWTFNPPTFGGGTKLEIK",~10 %

# Biological target: T1, ヒトCD20抗原
# Assay: Scatchard analysis, Raji cells
row,Binder,binding result
1,"抗ヒトCD20マウスモノクローナル抗体 1k1782 (antibody, V domains shown, Mouse monoclonal antibody from hybridoma; also called m1782) VH: QVQLQQSGAELAKPGASVKMSCKASGYTFTSYWMHWVKQRPGQGLEWIGYITPSTGYTDYNKKFKDKATLTADRSSSTAYMHLSSLTSEDSAVYYCARSGPYFDVWGAGTTVTVSS VL: DILLTQSPAILFVSPGERVSLSCRASQNIGTSIHWYQQRTNGSPRLLIKYASESFSGIPSRFSGSGSGTDFTLSINSVESEDIADYYCQQSNSWPFTFGSGTKLEIK",binds
2,"ヒト化抗CD20モノクローナル抗体 hz1791-ss (antibody, V domains shown, also called ss; hz1791-ss32) VH: QIQLVQSGSELKKPGASVKVSCKASGYTFTNFGVNWVRQAPGKGLKWMGWINTYTGEPSYAQGFTGRFAFSLDASVSTAYLQISSLKAEDTATYFCTRRTNYYGTSYYYAMDYWGQGTTVTVSS VL: STVMTQSPDSLAVSLGERATINCKSSQSNSNDVAWYQQKPGQSPKVLIYFASNRYSGVPDRFSGSGYGTDFTLTISSLQAEDVAVYFCQQDYSSPLTFGAGTKLEIK",binds
3,"抗ヒトCD20マウスモノクローナル抗体 1K1228 (antibody, V domains shown, Mouse monoclonal antibody from hybridoma; also called m1228) VH: QVQLQQPGAELVKPGASVKVSCKASGFTFTSYNLHWVKQTPGQGLVWIGAIYPGNGDTSYNQKFRGKATLTADISSSTAYMQLSSLTSEDSAVYYCARYYYGYDAMDYWGQGTSVTVSS VL: EIILTQSPTTMAASPGEKITITCSASSSISSYYLRWYQQKPGFSPKVLIYRTSNLASGVPARFSGSGSGTSYSLTIGTMEAEDVATYYCQQGNTVPLTFGSGTKLEIK",binds
4,"抗ヒトCD20マウスモノクローナル抗体 1k1712 (antibody, V domains shown, Mouse monoclonal antibody from hybridoma; also called m1712) VH: QVQLQQPGAELVKPGASVKMSCKASGFTFTSYNLHWVKQTPGQGLEWIGAIYPGSGDTSYNQQFKGKATLTADKSSNTAYMQLNSLTSEDSAVYCCARSAMISTGNWYFDYWGQGTTLTVSS VL: QIVLSQSPAILSASPGEKVTMTCRASSSVSYMDWYQQKPGSSPKPWIYATSNLASGVPARFSGSGSGTSYSLTISRVEAEDTATYYCQQWTFNPPTFGSGTKLEIK",binds
5,"抗ヒトCD20マウスモノクローナル抗体 1k1402 (antibody, V domains shown, Mouse monoclonal antibody from hybridoma; also called m1402) VH: QVQLQQPGAELVKPGASVKMSCKASGFTFTSYNMHWVKQTPGQGLEWIGGIYPGNGDTSYNQKFKGKATLTADKSSSTAYMQLSSLTSEDSAVYYCARFYYYGSMGAMDYWGQGTSVTVSS VL: QIVLSQSPAILSASPGEKVTMTCRASSSVSYMHWYQQKPGSSPKPWIYATSNLASGVPARFSGSGSGTSYSLTITRVEAEDAATYYCQQWTFNPPTFGAGTKLELK",binds
